Reference: patent US20180009881A1 (VHSQUARED, published 2018)
Changes are numbered by the printed parent chain. Names and notes keep the numbering of the source. Like-named read-outs stand apart in the source and are kept apart here.

Tests used:
[1] = biological target: T1, recombinant soluble human IL-6R (human, UniProt P08887 20-365); experiment: Standard gp130 ELISA: ICVD mixed with soluble human IL-6R, then IL-6; complex captured on coated gp130 (competition)
T1 construct: extracellular domain; Printed only as 'soluble'; read as the extracellular domain; also called hIL-6R; sIL-6R
T1 sequence (looked up): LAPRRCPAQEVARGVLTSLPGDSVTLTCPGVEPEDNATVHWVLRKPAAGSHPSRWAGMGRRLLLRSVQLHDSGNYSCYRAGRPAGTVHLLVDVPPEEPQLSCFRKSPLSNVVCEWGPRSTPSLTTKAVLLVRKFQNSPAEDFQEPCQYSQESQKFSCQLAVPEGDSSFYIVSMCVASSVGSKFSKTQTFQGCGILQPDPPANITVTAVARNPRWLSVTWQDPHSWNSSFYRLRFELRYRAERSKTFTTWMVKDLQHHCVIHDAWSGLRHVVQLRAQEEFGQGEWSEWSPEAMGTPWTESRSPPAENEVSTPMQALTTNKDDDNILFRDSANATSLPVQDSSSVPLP

[2] = biological target: T1, recombinant soluble human IL-6R; experiment: as above; remark: listed apart in the source
recombinant human TNF [3] = biological target: T2, recombinant human TNF (human, UniProt P01375 77-233); experiment: Standard TNFR2/TNF interference ELISA: ICVD mixed with human TNF, TNF captured on coated Enbrel (competition)
T2 construct: also called TNF-alpha; TNFα
T2 sequence (P01375 77-233 limits assumed): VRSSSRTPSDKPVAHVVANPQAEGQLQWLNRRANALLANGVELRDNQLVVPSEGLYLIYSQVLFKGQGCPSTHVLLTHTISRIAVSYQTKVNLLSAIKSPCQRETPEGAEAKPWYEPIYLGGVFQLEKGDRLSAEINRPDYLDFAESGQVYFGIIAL

recombinant human TNF [4] = biological target: T2, recombinant human TNF; experiment: Standard TNFR2/TNF interference ELISA (competition), against ID32F

B1: anti-IL-6R ICVD 7F6 (VHH)
VHH: EVQLVESGGGLVQAGGSTRLTCLASGSISSINVIGWYRQAPGKQRELVAMIGRGEGANYGDFAKGRFTISRDNSKNTVYLQMNSLKPEDTAVYYCYADYEDRDSPFNGSWGQGTQVTVSS
[1]
  EC50: 0.15 nM

B2: anti-IL-6R ICVD ID-3V (VHH)
VHH: B1 VHH with R102H
notes: also called 7F6 with R102H
[1]
  EC50: 0.16 nM

B3: anti-IL-6R ICVD 5G9 (VHH)
VHH: EVQLVESGGGLVQAGGSTRLTCKASGSIFNINSINVMAWYRQAPGKQRELVAIIGKGGGTNYADFVKGRFTISRDAAKNTVNLQMNSLKPEDTAVYYCYADYEDRDSPFNASWGQGTQVTVSS
[2]
  EC50: 0.09 nM

B4: anti-IL-6R ICVD ID-54V (VHH)
VHH: B3 VHH with R105H
notes: also called 5G9 with R105H
[2]
  EC50: 0.15 nM

B5: anti-TNF-alpha ICVD ID8F-EV (VHH)
VHH: EVQLVESGGGLVQPGGSLKLSCAASGFDFSSHWMYWVRQAPGKELEWLSEINTNGLITHYGDSVKGRFTVSRNNAANKMYLELTRLEPEDTALYYCARNQKGLNKGQGTQVTVSS
notes: also called Q65B1 with a K59H substitution; K59H; not shown: C-terminal Flag-His6 tag
Recombinant human TNF [3]
  EC50: 0.139 nM

B6: anti-TNF-alpha ICVD ID34F (VHH)
VHH: B5 VHH with K101H
notes: also called Q65B1 with K59H and K101H
Recombinant human TNF [4]
  binding result: binds

B7: anti-TNF-alpha ICVD ID43F (VHH)
VHH: B5 VHH with H59A
notes: also called Q65B1 with a K59A substitution; K59A; not shown: C-terminal Flag-His6 tag
Recombinant human TNF [3]
  EC50: 0.603 nM

B8: anti-TNF-alpha ICVD ID44F (VHH)
VHH: B5 VHH with H59Q
notes: also called Q65B1 with a K59Q substitution; K59Q; not shown: C-terminal Flag-His6 tag
Recombinant human TNF [3]
  EC50: 0.245 nM

B9: anti-TNF-alpha ICVD Q65B1 (VHH)
VHH: B5 VHH with H59K
notes: also called K59; not shown: C-terminal Flag-His6 tag
Recombinant human TNF [3]
  EC50: 0.0984 nM
